In paper PMC5018465 (Biochimica et biophysica acta, 2016):

B1: αAΔ70–88 deletion mutant of human αA-crystallin (natural protein, UniProt P02489 1-173, looked up)
chain: MDVTIQHPWFKRTLGPFYPSRLFDQFFGEGLFEYDLLPFLSSTISPYYRQSLFRTVLDSGISEVRSDRDVQDDFVEIHGKHNERQDDHGYISREFHRRYRLPSNVDQSALSCSLSADGMLTFCGPKIQTGLDATHAERAIPVSREEKPTSAPSS
B2: αAΔ70–76 deletion mutant of human αA-crystallin (natural protein, UniProt P02489 1-173, looked up)
chain: MDVTIQHPWFKRTLGPFYPSRLFDQFFGEGLFEYDLLPFLSSTISPYYRQSLFRTVLDSGISEVRSDRDVKHFSPEDLTVKVQDDFVEIHGKHNERQDDHGYISREFHRRYRLPSNVDQSALSCSLSADGMLTFCGPKIQTGLDATHAERAIPVSREEKPTSAPSS

Target: the molecule itself
Assay: SEC-MALS

Row | Protein | binding result
1 | B1 | binds
2 | B2 | binds
